According to patent publication US12269859B2, “Synthetic immune receptors and methods of use thereof” (Angeles Therapeutics, Inc., priority 2016, dated 2025):

Tested on: target antigen-expressing cell line
Assay: Jurkat NFAT-GFP assay, coculture with target cell lines expressing the respective target antigen (summary Table 10A)
Type: cell-based, human
Design: key: The signs +/−, +, 2+ etc. after the name of the cell lines indicate the relative degree of positivity on the Jurkat-NFAT-GFP assay as measured by the % GFP positive cells; +: relative degree of positivity on the Jurkat-NFAT-GFP assay as measured by the % GFP positive cells; 2+: relative degree of positivity on the Jurkat-NFAT-GFP assay as measured by the % GFP positive cells
How it was run: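 Readout is % GFP+ cells by FACS, graded +/− to 2+ relative to parental reporter cells. Jurkat-NFAT-GFP cells stably transduced with SIR constructs (puromycin-selected) were mixed with target-antigen-expressing cell lines at roughly 1:2 effector:target and cocultured ~4–18 h.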

Molecule	NFAT-GFP ASSAY Positive Cell lines (coculture with L363 cells)	NFAT-GFP ASSAY Positive Cell lines (coculture with U266 cells)
012517-P12 (protein) MALPVTALLLPLALLLHAARPLEGKPIPNPLLGLDSTGSGEDLKNVFPPEVAVFEPSKAEIAHTQKATLVCLATGFYPDHVELSWWVNGKEVHSGVCTDPQPLKEQPALNDSRYCLSSRLRVSATFWQNPRNHFRCQVQFYGLSENDEWTQDRAKPVTQIVSAEAWGRADCGITSASYHQGVLSATILYEILLGKATLYAVLVSALVLMAMVKRKDSRGRAKRSGSGATNFSLLKQAGDVEENPGPTSMALPVTALLLPLALLLHAARPDIVMTQSHKFMSTSVGDRVSITCKASQDVSTAVAWYQQKPGQSPKLLIYSASYRYTGVPDRFTGSGSGTDFTFTISSVQAEDLAVYYCQQHYSTPPYTFGGGTKLEIKGGGGSGGGGSGGGGSQVQLQQSGPELVKPGASVKISCKASGYAFSSSWMNWVKQRPGQGLEWIGRIYPGDGDTKYNGKFKGKATLTADKSSSTAYMQLSSLTSVDSAVYFCARSTMIATGAMDYWGQGTSVTVSSTREQKLISEEDGSGIQNPDPAVYQLRDSKSSDKSVCLFTDFDSQTNVSQSKDSDVYITDKCVLDMRSMDFKSNSAVAWSNKSDFACANAFNNSIIPEDTFFPSSDVPCDVKLVEKSFETDTNLNFQNLSVIGFRILLLKVAGFNLLMTLRLWSSRAKRSGSGVKQTLNFDLLKLAGDVESNPGPSRGHMTEYKPTVRLATRDDVPRAVRTLAAAFADYPATRHTVDPDRHIERVTELQELFLTRVGLDIGKVWVADDGAAVAVWTTPESVEAGAVFAEIGPRMAELSGSRLAAQQQMEGLLAPHRPKEPAWFLATVGVSPDHQGKGLGSAVVLPGVEAAERAGVPAFLETSAPRNLPFYERLGFTVTADVEVPEGPRTWCMTRKPGA	(+/−)	U266 (+/−), L363
012517-A12 (protein) MALPVTALLLPLALLLHAARPLEGKPIPNPLLGLDSTGSGEDLKNVFPPEVAVFEPSKAEIAHTQKATLVCLATGFYPDHVELSWWVNGKEVHSGVCTDPQPLKEQPALNDSRYCLSSRLRVSATFWQNPRNHFRCQVQFYGLSENDEWTQDRAKPVTQIVSAEAWGRADCGITSASYHQGVLSATILYEILLGKATLYAVLVSALVLMAMVKRKDSRGRAKRSGSGATNFSLLKQAGDVEENPGPTSMALPVTALLLPLALLLHAARPDIQMTQSPSSLSASVGDRVTITCKASQDVSTAVAWYQQKPGKAPKLLIYSASYRYTGVPDRFTGSGSGTDFTLTISSLQPEDFATYYCQQHYSTPPYTFGGGTKVEIKRGGGGSGGGGSGGGGSQVQLVQSGAEVKKPGASVKVSCKASGYAFSSSWMNWVRQAPGQGLEWIGRIYPGDGDTKYNGKFKGKATLTADKSTSTAYMELSSLRSEDTAVYYCARSTMIATGAMDYWGQGTLVTVSSTREQKLISEEDGSGIQNPDPAVYQLRDSKSSDKSVCLFTDFDSQTNVSQSKDSDVYITDKCVLDMRSMDFKSNSAVAWSNKSDFACANAFNNSIIPEDTFFPSSDVPCDVKLVEKSFETDTNLNFQNLSVIGFRILLLKVAGFNLLMTLRLWSSRAKRSGSGVKQTLNFDLLKLAGDVESNPGPSRGHMTEYKPTVRLATRDDVPRAVRTLAAAFADYPATRHTVDPDRHIERVTELQELFLTRVGLDIGKVWVADDGAAVAVWTTPESVEAGAVFAEIGPRMAELSGSRLAAQQQMEGLLAPHRPKEPAWFLATVGVSPDHQGKGLGSAVVLPGVEAAERAGVPAFLETSAPRNLPFYERLGFTVTADVEVPEGPRTWCMTRKPGA	(+)	U266 (+/−), L363
110116-L01 (protein, Synthetic Immune Receptor (SIR)) MALPVTALLLPLALLLHAARPLEQKLISEEDLGSGDRPDPAVYQLRDSKSSDKSVCLFTDFDSQTNVSQSKDSDVYITDKCVLDMRSMDFKSNSAVAWSNKSDFACANAFNNSIIPEDTFFPSPESSCDVKLVEKSFETDTNLNFQNLSVIGFRILLLKVAGFNLLMTLRLWSSSSRAKRSGSGVKQTLNFDLLKLAGDVESNPGPTSMALPVTALLLPLALLLHAARPDIVMTQSQKSMSTSVGDRVSITCKASQDVITGVAWYQQKPGQSPKLLIYSASYRYTGVPDRFTGSGSGTDFTFTISNVQAEDLAVYYCQQHYSTPLTFGAGTKLELKGGGGSGGGGSGGGGSQVQLQQPGAELVRPGASVKLSCKASGYSFTTYWMNWVKQRPGQGLEWIGMIHPSDSETRLNQKFKDKATLTVDKSSSTAYMQLSSPTSEDSAVYYCARSTMIATRAMDYWGQGTSVTVSSTRGKPIPNPLLGLDSTGSGEDLKNVFPPEVAVFEPSEAEISHTQKATLVCLATGFYPDHVELSWWVNGKEVHSGVCTDPQPLKEQPALNDSRYCLSSRLRVSATFWQNPRNHFRCQVQFYGLSENDEWTQDRAKPVTQIVSAEAWGRADCGFTSESYQQGVLSATILYEILLGKATLYAVLVSALVLMAMVKRKDSRGRAKRSGSGATNFSLLKQAGDVEENPGPSRGHMTEYKPTVRLATRDDVPRAVRTLAAAFADYPATRHTVDPDRHIERVTELQELFLTRVGLDIGKVWVADDGAAVAVWTTPESVEAGAVFAEIGPRMAELSGSRLAAQQQMEGLLAPHRPKEPAWFLATVGVSPDHQGKGLGSAVVLPGVEAAERAGVPAFLETSAPRNLPFYERLGFTVTADVEVPEGPRTWCMTRKPGA	U266 (+), L363 (+)	U266 (+), L363 (+)
012517-B12 (protein) MALPVTALLLPLALLLHAARPLEGKPIPNPLLGLDSTGSGEDLKNVFPPEVAVFEPSKAEIAHTQKATLVCLATGFYPDHVELSWWVNGKEVHSGVCTDPQPLKEQPALNDSRYCLSSRLRVSATFWQNPRNHFRCQVQFYGLSENDEWTQDRAKPVTQIVSAEAWGRADCGITSASYHQGVLSATILYEILLGKATLYAVLVSALVLMAMVKRKDSRGRAKRSGSGATNFSLLKQAGDVEENPGPTSMALPVTALLLPLALLLHAARPDVVMTQTPLSLSVTPGQPASISCRSSQSLVHNNGNTYLHWYLQKPGQSPQLLIYKVSNRFSGVPDRFSGSGSGTDFTLKISRVEAEDVGVYFCSQSTHVPPYTFGGGTKVEIKGGGGSGGGGSGGGGSEVQLVESGGGLVQPGGSLRLSCAASGFTFSDYYMAWVRQAPGKGLEWVAEINYDGSSTYYVDSVKGRFTISRDNAKNSLYLQMNSLRAEDTAVYYCARDRGFYFDYWGQGTTVTVSSTREQKLISEEDGSGIQNPDPAVYQLRDSKSSDKSVCLFTDFDSQTNVSQSKDSDVYITDKCVLDMRSMDFKSNSAVAWSNKSDFACANAFNNSIIPEDTFFPSSDVPCDVKLVEKSFETDTNLNFQNLSVIGFRILLLKVAGFNLLMTLRLWSSRAKRSGSGVKQTLNFDLLKLAGDVESNPGPSRGHMTEYKPTVRLATRDDVPRAVRTLAAAFADYPATRHTVDPDRHIERVTELQELFLTRVGLDIGKVWVADDGAAVAVWTTPESVEAGAVFAEIGPRMAELSGSRLAAQQQMEGLLAPHRPKEPAWFLATVGVSPDHQGKGLGSAVVLPGVEAAERAGVPAFLETSAPRNLPFYERLGFTVTADVEVPEGPRTWCMTRKPGA	+	2+
